# Test results published in article PMC9482650, “Quantitative fragmentomics allow affinity mapping of interactomes” (Nature Communications, 2022).
# T1: LIN7B, Q9HAP6
# T1 sequence (Q9HAP6 88-185, limits assumed, looked up): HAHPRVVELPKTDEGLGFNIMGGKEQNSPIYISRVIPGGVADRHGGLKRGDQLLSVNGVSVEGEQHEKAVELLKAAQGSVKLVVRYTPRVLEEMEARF
# T2: DVL3, Q92997
# T2 sequence (Q92997 244-331, limits assumed, looked up): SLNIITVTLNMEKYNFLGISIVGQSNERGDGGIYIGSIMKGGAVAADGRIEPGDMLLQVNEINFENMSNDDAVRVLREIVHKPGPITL
# T3: PARD3B_1, Q8TEW8
# T3 sequence (Q8TEW8 196-299, limits assumed, looked up): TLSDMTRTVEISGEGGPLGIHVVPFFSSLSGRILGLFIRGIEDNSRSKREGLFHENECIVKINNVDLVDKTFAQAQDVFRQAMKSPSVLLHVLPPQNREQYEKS
# T4: SHANK1, Q9Y566
# T4 sequence (Q9Y566 658-767, limits assumed, looked up): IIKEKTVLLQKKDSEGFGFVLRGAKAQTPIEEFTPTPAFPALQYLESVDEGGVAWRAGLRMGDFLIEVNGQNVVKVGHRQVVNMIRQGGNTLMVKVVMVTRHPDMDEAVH
# T5: MPP2, Q14168
# T5 sequence (Q14168 180-250, limits assumed, looked up): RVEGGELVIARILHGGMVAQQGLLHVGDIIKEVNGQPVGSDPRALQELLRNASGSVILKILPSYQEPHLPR
# T6: GRIP1_4, Q9Y3R0
# T6 sequence (Q9Y3R0 467-571, limits assumed, looked up): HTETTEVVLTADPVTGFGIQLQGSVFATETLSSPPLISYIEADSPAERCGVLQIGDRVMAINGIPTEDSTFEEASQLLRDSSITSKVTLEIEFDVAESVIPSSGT
# T7: HTRA4, P83105
# T7 sequence (P83105 378-476, limits assumed, looked up): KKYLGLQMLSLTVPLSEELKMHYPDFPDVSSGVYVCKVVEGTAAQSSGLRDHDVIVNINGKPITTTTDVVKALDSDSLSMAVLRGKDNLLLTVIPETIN
# T8: NHERF3_4, Q5T2W1
# T8 sequence (Q5T2W1 373-468, limits assumed, looked up): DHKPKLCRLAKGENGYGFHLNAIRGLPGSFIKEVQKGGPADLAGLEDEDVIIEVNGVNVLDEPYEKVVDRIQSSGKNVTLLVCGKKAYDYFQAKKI
# T9: PDZD7_3, Q9H5P4
# T9 sequence (Q9H5P4 857-944, limits assumed, looked up): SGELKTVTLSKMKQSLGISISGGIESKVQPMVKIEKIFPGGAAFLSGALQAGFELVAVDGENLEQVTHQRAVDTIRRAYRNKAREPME
# T10: FRMPD1, Q5SYB0
# T10 sequence (Q5SYB0 52-145, limits assumed, looked up): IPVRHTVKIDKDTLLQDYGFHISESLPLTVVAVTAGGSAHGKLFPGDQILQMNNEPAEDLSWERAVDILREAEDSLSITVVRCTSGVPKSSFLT
# T11: NHERF3_3, Q5T2W1
# T11 sequence (Q5T2W1 238-333, limits assumed, looked up): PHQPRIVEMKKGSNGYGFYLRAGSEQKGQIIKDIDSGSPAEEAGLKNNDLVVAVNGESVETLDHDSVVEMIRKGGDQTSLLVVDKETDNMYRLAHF
# T12: CARD11, Q9BXL7
# T12 sequence (Q9BXL7 662-765, limits assumed, looked up): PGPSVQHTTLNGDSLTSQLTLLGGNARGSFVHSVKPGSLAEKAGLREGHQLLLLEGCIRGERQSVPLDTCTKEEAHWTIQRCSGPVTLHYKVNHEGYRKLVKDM
# T13: APBA1_2, Q02410
# T13 sequence (Q02410 742-832, limits assumed, looked up): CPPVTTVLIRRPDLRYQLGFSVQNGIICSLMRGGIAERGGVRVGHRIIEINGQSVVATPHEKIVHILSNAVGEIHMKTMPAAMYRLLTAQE
# Target: T1, LIN7B, Q9HAP6
# Assay: holdup assay
# Set-up: key: below the threshold = too weak to quantify, mostly under pKd 3.1 to 4
# Conditions: plain residues with an end cap or a label only (N-terminal biotin on a linker: ttds)
row,pKd,Binder
1,below the threshold,"QRPYRRESEI [KCNJ12, Q14500]"

# Target: T2, DVL3, Q92997
# Assay: holdup assay
# Set-up: key: below the threshold = too weak to quantify, mostly under pKd 3.1 to 4
# Conditions: plain residues with an end cap or a label only (N-terminal biotin on a linker: ttds)
row,pKd,Binder
1,below the threshold,"QRPYRRESEI [KCNJ12, Q14500]"

# Target: T3, PARD3B_1, Q8TEW8
# Assay: holdup assay
# Set-up: key: below the threshold = too weak to quantify, mostly under pKd 3.1 to 4
# Conditions: plain residues with an end cap or a label only (N-terminal biotin on a linker: ttds)
row,pKd,Binder
1,below the threshold,"QRPYRRESEI [KCNJ12, Q14500]"

# Target: T4, SHANK1, Q9Y566
# Assay: holdup assay
# Set-up: key: below the threshold = too weak to quantify, mostly under pKd 3.1 to 4
# Conditions: plain residues with an end cap or a label only (N-terminal biotin on a linker: ttds)
row,pKd,Binder
1,below the threshold,"QRPYRRESEI [KCNJ12, Q14500]"

# Target: SCRIB_3, Q14160
# Sequence (Q14160 999-1103): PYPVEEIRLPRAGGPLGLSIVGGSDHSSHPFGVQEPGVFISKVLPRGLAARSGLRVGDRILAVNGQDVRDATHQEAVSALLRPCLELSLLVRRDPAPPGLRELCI
# Assay: holdup assay
# Set-up: key: below the threshold = too weak to quantify, mostly under pKd 3.1 to 4
# Conditions: plain residues with an end cap or a label only (N-terminal biotin on a linker: ttds)
row,pKd,Binder
1,4.76,"QRPYRRESEI [KCNJ12, Q14500]"

# Target: DLG1_3, Q12959
# Sequence (Q12959 457-571): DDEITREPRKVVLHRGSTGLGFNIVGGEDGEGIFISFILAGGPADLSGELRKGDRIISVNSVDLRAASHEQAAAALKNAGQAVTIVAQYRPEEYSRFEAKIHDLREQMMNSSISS
# Assay: holdup assay
# Set-up: key: below the threshold = too weak to quantify, mostly under pKd 3.1 to 4
# Conditions: plain residues with an end cap or a label only (N-terminal biotin on a linker: ttds)
row,pKd,Binder
1,4.08,"QRPYRRESEI [KCNJ12, Q14500]"

# Target: LDB3, O75112
# Sequence (O75112 1-94): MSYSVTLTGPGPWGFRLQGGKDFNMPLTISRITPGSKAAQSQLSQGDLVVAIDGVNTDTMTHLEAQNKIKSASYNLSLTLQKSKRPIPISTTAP
# Assay: holdup assay
# Set-up: key: below the threshold = too weak to quantify, mostly under pKd 3.1 to 4
# Conditions: plain residues with an end cap or a label only (N-terminal biotin on a linker: ttds)
row,pKd,Binder
1,below the threshold,"QRPYRRESEI [KCNJ12, Q14500]"

# Target: T5, MPP2, Q14168
# Assay: holdup assay
# Set-up: key: below the threshold = too weak to quantify, mostly under pKd 3.1 to 4
# Conditions: plain residues with an end cap or a label only (N-terminal biotin on a linker: ttds)
row,pKd,Binder
1,below the threshold,"QRPYRRESEI [KCNJ12, Q14500]"

# Target: AHNAK1, Q09666
# Sequence (Q09666 4-100): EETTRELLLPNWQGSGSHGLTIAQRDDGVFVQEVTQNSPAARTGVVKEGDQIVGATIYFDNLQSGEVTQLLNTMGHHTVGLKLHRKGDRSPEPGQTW
# Assay: holdup assay
# Set-up: key: below the threshold = too weak to quantify, mostly under pKd 3.1 to 4
# Conditions: plain residues with an end cap or a label only (N-terminal biotin on a linker: ttds)
row,pKd,Binder
1,below the threshold,"QRPYRRESEI [KCNJ12, Q14500]"

# Target: T6, GRIP1_4, Q9Y3R0
# Assay: holdup assay
# Set-up: key: below the threshold = too weak to quantify, mostly under pKd 3.1 to 4
# Conditions: plain residues with an end cap or a label only (N-terminal biotin on a linker: ttds)
row,pKd,Binder
1,below the threshold,"QRPYRRESEI [KCNJ12, Q14500]"

# Target: T7, HTRA4, P83105
# Assay: holdup assay
# Set-up: key: below the threshold = too weak to quantify, mostly under pKd 3.1 to 4
# Conditions: plain residues with an end cap or a label only (N-terminal biotin on a linker: ttds)
row,pKd,Binder
1,below the threshold,"QRPYRRESEI [KCNJ12, Q14500]"

# Target: GRIP2_4, Q9C0E4
# Sequence (Q9C0E4 446-548): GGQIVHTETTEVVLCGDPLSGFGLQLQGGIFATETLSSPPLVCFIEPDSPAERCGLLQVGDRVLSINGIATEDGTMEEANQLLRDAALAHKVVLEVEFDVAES
# Assay: holdup assay
# Set-up: key: below the threshold = too weak to quantify, mostly under pKd 3.1 to 4
# Conditions: plain residues with an end cap or a label only (N-terminal biotin on a linker: ttds)
row,pKd,Binder
1,below the threshold,"QRPYRRESEI [KCNJ12, Q14500]"

# Target: GOPC, Q9HD26
# Assay: holdup assay
# Set-up: key: below the threshold = too weak to quantify, mostly under pKd 3.1 to 4
# Conditions: plain residues with an end cap or a label only (N-terminal biotin on a linker: ttds)
row,pKd,Binder
1,below the threshold,"QRPYRRESEI [KCNJ12, Q14500]"

# Target: T8, NHERF3_4, Q5T2W1
# Assay: holdup assay
# Set-up: key: below the threshold = too weak to quantify, mostly under pKd 3.1 to 4
# Conditions: plain residues with an end cap or a label only (N-terminal biotin on a linker: ttds)
row,pKd,Binder
1,below the threshold,"QRPYRRESEI [KCNJ12, Q14500]"

# Target: PDLIM1, O00151
# Sequence (O00151 1-87): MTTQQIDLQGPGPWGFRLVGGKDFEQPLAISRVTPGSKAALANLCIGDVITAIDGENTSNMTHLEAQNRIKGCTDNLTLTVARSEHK
# Assay: holdup assay
# Set-up: key: below the threshold = too weak to quantify, mostly under pKd 3.1 to 4
# Conditions: plain residues with an end cap or a label only (N-terminal biotin on a linker: ttds)
row,pKd,Binder
1,below the threshold,"QRPYRRESEI [KCNJ12, Q14500]"

# Target: TJP2_1, Q9UDY2
# Sequence (Q9UDY2 24-128): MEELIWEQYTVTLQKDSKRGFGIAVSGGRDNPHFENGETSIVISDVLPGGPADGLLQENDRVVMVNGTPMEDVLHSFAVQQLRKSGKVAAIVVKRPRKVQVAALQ
# Assay: holdup assay
# Set-up: key: below the threshold = too weak to quantify, mostly under pKd 3.1 to 4
# Conditions: plain residues with an end cap or a label only (N-terminal biotin on a linker: ttds)
row,pKd,Binder
1,below the threshold,"QRPYRRESEI [KCNJ12, Q14500]"

# Target: NHERF4_4, Q86UT5
# Sequence (Q86UT5 464-550): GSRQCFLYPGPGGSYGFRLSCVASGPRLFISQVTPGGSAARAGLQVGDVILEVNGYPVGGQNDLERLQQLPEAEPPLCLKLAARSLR
# Assay: holdup assay
# Set-up: key: below the threshold = too weak to quantify, mostly under pKd 3.1 to 4
# Conditions: plain residues with an end cap or a label only (N-terminal biotin on a linker: ttds)
row,pKd,Binder
1,below the threshold,"QRPYRRESEI [KCNJ12, Q14500]"

# Target: LNX1_2, Q8TBB1
# Sequence (Q8TBB1 371-470): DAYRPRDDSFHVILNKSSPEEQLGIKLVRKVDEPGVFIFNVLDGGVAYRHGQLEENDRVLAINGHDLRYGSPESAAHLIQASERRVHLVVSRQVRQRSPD
# Assay: holdup assay
# Set-up: key: below the threshold = too weak to quantify, mostly under pKd 3.1 to 4
# Conditions: plain residues with an end cap or a label only (N-terminal biotin on a linker: ttds)
row,pKd,Binder
1,below the threshold,"QRPYRRESEI [KCNJ12, Q14500]"

# Target: T9, PDZD7_3, Q9H5P4
# Assay: holdup assay
# Set-up: key: below the threshold = too weak to quantify, mostly under pKd 3.1 to 4
# Conditions: plain residues with an end cap or a label only (N-terminal biotin on a linker: ttds)
row,pKd,Binder
1,4.57,"QRPYRRESEI [KCNJ12, Q14500]"

# Target: GORASP2, Q9H8Y8
# Assay: holdup assay
# Set-up: key: below the threshold = too weak to quantify, mostly under pKd 3.1 to 4
# Conditions: plain residues with an end cap or a label only (N-terminal biotin on a linker: ttds)
row,pKd,Binder
1,3.74,"QRPYRRESEI [KCNJ12, Q14500]"

# Target: T10, FRMPD1, Q5SYB0
# Assay: holdup assay
# Set-up: key: below the threshold = too weak to quantify, mostly under pKd 3.1 to 4
# Conditions: plain residues with an end cap or a label only (N-terminal biotin on a linker: ttds)
row,pKd,Binder
1,below the threshold,"QRPYRRESEI [KCNJ12, Q14500]"

# Target: T11, NHERF3_3, Q5T2W1
# Assay: holdup assay
# Set-up: key: below the threshold = too weak to quantify, mostly under pKd 3.1 to 4
# Conditions: plain residues with an end cap or a label only (N-terminal biotin on a linker: ttds)
row,pKd,Binder
1,below the threshold,"QRPYRRESEI [KCNJ12, Q14500]"

# Target: T12, CARD11, Q9BXL7
# Assay: holdup assay
# Set-up: key: below the threshold = too weak to quantify, mostly under pKd 3.1 to 4
# Conditions: plain residues with an end cap or a label only (N-terminal biotin on a linker: ttds)
row,pKd,Binder
1,below the threshold,"QRPYRRESEI [KCNJ12, Q14500]"

# Target: T13, APBA1_2, Q02410
# Assay: holdup assay
# Set-up: key: below the threshold = too weak to quantify, mostly under pKd 3.1 to 4
# Conditions: plain residues with an end cap or a label only (N-terminal biotin on a linker: ttds)
row,pKd,Binder
1,below the threshold,"QRPYRRESEI [KCNJ12, Q14500]"
